Experimental data taken from publication PMC10531356, “Hardening of Respiratory Syncytial Virus Inclusion Bodies by Cyclopamine Proceeds through Perturbation of the Interactions of the M2-1 Protein with RNA and the P Protein” (International Journal of Molecular Sciences, 2023).
Where no end group is shown, it is not given here. The star is where a group is joined. FITC = O=C1OC2(c3ccc(O)cc3Oc3cc(O)ccc32)c2ccc(NC(=S)*)cc21

Key:
[1] = target: M2-1(R151K)-mCherry mutant (human respiratory syncytial virus (hRSV), strain Long); experiment: SEC; Hi-Load 16/600 Superdex 200, 20 mM Tris-HCl pH 7.4, 150 mM NaCl, after GST cleavage
[2] = target: M2-1-mCherry fusion protein (wild type) (human respiratory syncytial virus (hRSV), strain Long); experiment: as above
[3] = target: T1, M2-1 core domain (wild type) (human respiratory syncytial virus …, UniProt P04545 58-177, 15N-labelled for NMR); experiment: MST; FITC-P95-112 fixed at 100 nM, M2-1core 0 to 33.5 µM, PBS with 1% DMSO and 0, 1 or 10 µM CPM, 20 °C, Monolith NT.115; settings: both partners purified
T1 construct: C-terminal globular core domain of M2-1 of hRSV strain Long, from pGEX-M2-1core; UniProt entry of strain Long not known to me; also called 15N-M2-1core; WT M2-1core
T1 sequence: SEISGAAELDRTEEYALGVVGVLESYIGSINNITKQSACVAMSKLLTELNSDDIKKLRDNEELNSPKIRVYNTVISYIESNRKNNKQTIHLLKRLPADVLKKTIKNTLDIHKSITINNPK

For “M2-1(R151K)-mCherry mutant (natural protein)”, the stoichiometry N [1] was 4.

“M2-1-mCherry fusion protein (wild type) (natural protein)” was tested, and the stoichiometry N [2] was 4.

B1: FITC-P(95-112) peptide (peptide)
peptide: {FITC}-DNPFSKLYKETIETFDNN
notes: also called synthetic FITC-P peptide; P peptide; source: synthetic peptide, bought: Proteogenix
With B1 the Kd [3] was roughly 20 µM.
